The record followed here is PMC5030711, “Investigation of SP94 Peptide as a Specific Probe for Hepatocellular Carcinoma Imaging and Therapy” (Scientific Reports, 2016).

Several values for one entry are separate records, joined by “and”; a condition that tells them apart may be missing. Identical values can stand only once. Entries after “also recorded” stand apart in the source; their conditions may differ. Residues, ends and D or L forms follow the SMILES beside them. *: point of attachment. HYNIC = NNc1ccc(C(=O)*)cn1

A short description of data set [1]: In vitro stability of ^188Re-HYNIC-SP94 (radio-TLC). To be noted: FBS, room temperature, 48 h, mean ± SD. The format is in vitro ADME. As to the method: The in vitro stability of ^188Re-HYNIC-SP94 was evaluated by incubating ^188Re-HYNIC-SP94 in normal saline and FBS at room temperature. RCP was analyzed by radio-TLC at 1, 4, 8, 18, 26 and 48 h after incubation to determine the stability.

In the next data set the test system is Huh-7 cells. The format is binding, human. To be noted: 2 h. As to the method:
The binding affinity of HYNIC-SP94 was assessed via a competitive displacement assay with ^99mTc tricine-EDDA/HYNIC-SP94[35]. Briefly, Huh-7 cells (1 × 10^6) and ^99mTc tricine-EDDA/HYNIC-SP94 (370 kBq) were added to each test tube in the presence of increasing concentrations of the SP94 peptide (from 0.001 nM to 10000 nM) and incubated for 2 h at 37 °C. To remove unbound ^99mTc tricine-EDDA/HYNIC-SP94, the cells were washed three times with cold PBS (1×, pH 7.2) and then centrifuged (600 rpm, 5 min). Radioactivity was determined using a γ-counter. The IC50 value was calculated by fitting experimental data with nonlinear regression using GraphPad Prism (GraphPad Software, San Diego, CA, USA).

Data set [2] in a line: In vitro stability of ^99mTc-labeled complexes (radio-TLC). The format is in vitro ADME. As to conditions: PBS, normal saline and FBS, 37 °C, 1-12 h. On the procedure:
The in vitro stability of the radiolabeled peptide was tested by incubating it in PBS, saline and FBS for 1, 2, 4, 6 and 12 h at 37 °C. After incubation, ^99mTc-labeled complexes were assessed by radio-TLC. Results were plotted as the RCP (%) at different time points.

A short description of data set [3]: In vivo stability (RP-HPLC of plasma). As to conditions: within 60 min after tail vein injection (~30 MBq/mouse). On the set-up: species or system balb/c mice. On the procedure:
The in vivo stability of ^99mTc tricine-EDDA/HYNIC-SP94 was evaluated in balb/c mice. ^99mTc tricine-EDDA/HYNIC-SP94 (~30 MBq/mouse) in 0.1 mL of saline was injected via the tail vein. Blood was then taken from the heart 10, 30, 60, 120 and 240 min after injection under anesthesia. Blood was collected in a heparin tube and immediately centrifuged (5000 rpm, 5 min) to obtain plasma. A total of 400 μL methanol/trichloromethane (V/V: 4/1) was added to 400 μL of plasma, fully mixed and centrifuged (5000 rpm, 5 min). RP-HPLC analysis was performed with 20 μL supernatant loading filtered by a 0.22 μm filter. The RP-HPLC was equipped with a Zorbax Eclipse XDB-C18 column (4.6 × 150 mm) and the following gradients were used at a flow rate of 1 mL/min: 98% solvent A (0.1% trifluoroacetic in 100% water) and 2% solvent B (0.09% trifluoroacetic in 80% ACN and 20% water): 0~5 min; 2% solvent A and 98% solvent B: 5~10 min; 98% solvent A and 2% solvent B: 10~15 min.

For a further data set, the system named is Huh-7 tumor-bearing mice. The experiment in a line: Biodistribution study. As to conditions: mean ± SD; for Tumor uptake: Huh-7 tumor; for Tumor/muscle: ratio. The format is in vivo, balb/c nude mice. An excerpt: Four- to six-week-old male athymic nude mice were used for preparation of the xenograft tumor models. Huh-7 and Hela cells were subcutaneously injected at a concentration of 5 × 10^6 cells/mouse in the right front flank of the mice. The mice were ready for biodistribution and microSPECT/CT imaging study when the tumors reached an average diameter of 0.8~1.0 cm (3~4 weeks after inoculation). Animal care and experimental procedures were accordant with the Helsinki Declaration and were approved by the institutional animal care committee.
Fifteen Huh-7 tumor-bearing mice were randomly divided into three groups. ^99mTc tricine-EDDA/HYNIC-SP94 (~0.74 MBq/mouse) in 0.1 mL of saline was injected via tail vein. At 0.5 and 1.5 h p.i., the mice were anesthetized via 2% isoflurane and sacrificed by cervical dislocation. Immediately after sacrifice, the blood, tumors and organs of interest (heart, lungs, liver, spleen, stomach, small intestine, large intestine, kidneys, muscle and thyroid) were harvested, washed with saline and weighed. Radioactivity was determined using a γ-counter. To determine the specific uptake of ^99mTc tricine-EDDA/HYNIC-SP94, 5 mice received an intravenous injection of 200 μg of unlabeled HYNIC-SP94 as a blocking agent 30 min prior to injection of ^99mTc tricine-EDDA/HYNIC-SP94 (~0.74 MBq/mouse). The mice were sacrificed 30 min p.i. and the experiments performed as described above. Absorption of organs and tissues was calculated as a percentage of the injected dose per gram of tissue mass (%ID/g).

The mark [4] stands for this setting: 0.5 h p.i., blocking: 200 μg unlabeled HYNIC-SP94 i.v. 30 min prior.

Take `CC[C@H](C)[C@H](NC(=O)[C@H](CO)NC(=O)[C@H](Cc1ccccc1)NC(=O)[C@H](CO)NC(=O)c1ccc(NN)nc1)C(=O)N[C@H](C(=O)N[C@@H](Cc1c[nH]cn1)C(=O)N[C@H](C(=O)N1CCC[C@H]1C(=O)N[C@H](C(=O)N[C@@H](CC(C)C)C(=O)N1CCC[C@H]1C(=O)N[C@@H](CC(C)C)C(=O)O)[C@@H](C)CC)[C@@H](C)O)[C@@H](C)CC` [^188Re-HYNIC-SP94, metal not drawn] ({HYNIC}-SFSIIHTPILPL-OH): the RCP after incubation in data set [1] is 91.67 ± 2.36% and > 90%.

As to `CC[C@H](C)[C@H](NC(=O)[C@H](CO)NC(=O)[C@H](Cc1ccccc1)NC(=O)[C@H](CO)NC(=O)c1ccc(NN)nc1)C(=O)N[C@H](C(=O)N[C@@H](Cc1c[nH]cn1)C(=O)N[C@H](C(=O)N1CCC[C@H]1C(=O)N[C@H](C(=O)N[C@@H](CC(C)C)C(=O)N1CCC[C@H]1C(=O)N[C@@H](CC(C)C)C(=O)O)[C@@H](C)CC)[C@@H](C)O)[C@@H](C)CC` [HYNIC-SP94, 6-hydrazinonicotinic acid-SP94] ({HYNIC}-SFSIIHTPILPL-OH), in the data set on Huh-7 cells, the IC50 is 4.49 ± 0.2 nM.

As for `CC[C@H](C)[C@H](NC(=O)[C@H](CO)NC(=O)[C@H](Cc1ccccc1)NC(=O)[C@H](CO)NC(=O)c1ccc(NN)nc1)C(=O)N[C@H](C(=O)N[C@@H](Cc1c[nH]cn1)C(=O)N[C@H](C(=O)N1CCC[C@H]1C(=O)N[C@H](C(=O)N[C@@H](CC(C)C)C(=O)N1CCC[C@H]1C(=O)N[C@@H](CC(C)C)C(=O)O)[C@@H](C)CC)[C@@H](C)O)[C@@H](C)CC` [^99mTc tricine-EDDA/HYNIC-SP94, metal not drawn] ({HYNIC}-SFSIIHTPILPL-OH), the “in vitro stability (RCP)” value in data set [2] is listed as “highly stable; also recorded: slightly better”. Also, the “radiochemical purity (RCP) maintained in vivo” value in data set [3] was “about 66%”. In the data set on Huh-7 tumor-bearing mice (0.5 h p.i., blocking), the Blood uptake came to 0.99 ± 0.12 %ID/g, the Kidney uptake stood at 7.58±2.25 %ID/g, the Large intestine uptake is on record as 0.54 ± 0.08 %ID/g and the Liver uptake amounted to 2.07 ± 0.20 %ID/g. Moreover, in the data set with Huh-7 tumor-bearing mice (0.5 h p.i., blocking), the Lung uptake was 2.06 ± 0.18 %ID/g, the Muscle uptake was 0.23 ± 0.05 %ID/g, the Small intestine uptake came to 0.78 ± 0.11 %ID/g and the Spleen uptake came out at 1.05 ± 0.27 %ID/g. For the same compound, in the data set on Huh-7 tumor-bearing mice (0.5 h p.i., blocking), the Stomach uptake came to 0.84 ± 0.06 %ID/g, the Thyroid uptake was determined as 0.52 ± 0.04 %ID/g and the Tumor/muscle stood at 1.56 ± 0.06. In the data set on Huh-7 tumor-bearing mice (0.5 h p.i., non-blocking), this compound showed a Blood uptake of 1.17 ± 0.37 %ID/g, a Tumor uptake of 1.02 ± 0.26 %ID/g, a Kidney uptake of 7.40 ± 2.66 %ID/g and a Large intestine uptake of 0.70 ± 0.09 %ID/g. In the data set with Huh-7 tumor-bearing mice (0.5 h p.i., non-blocking), the Liver uptake is recorded as 2.39 ± 1.55 %ID/g, the Lung uptake is recorded as 2.10 ± 0.43 %ID/g, the Muscle uptake is listed as 0.30 ± 0.05 %ID/g and the Small intestine uptake came out at 0.97 ± 0.22 %ID/g. Besides, in the data set on Huh-7 tumor-bearing mice (0.5 h p.i., non-blocking), the Spleen uptake came to 0.84 ± 0.30 %ID/g, the Stomach uptake is 0.85 ± 0.18 %ID/g, the Thyroid uptake was 0.47 ± 0.09 %ID/g and the Tumor/muscle is listed as 3.96 ± 0.06. Moreover, in the data set on Huh-7 tumor-bearing mice (1.5 h p.i., non-blocking), the Blood uptake was determined as 0.49 ± 0.08 %ID/g, the Heart uptake turned out to be 0.34 ± 0.03 %ID/g, the Tumor uptake came out at 0.74 ± 0.07 %ID/g and the Kidney uptake came to 6.14 ± 0.10 %ID/g. In the data set on Huh-7 tumor-bearing mice (1.5 h p.i., non-blocking), the Large intestine uptake came out at 0.48 ± 0.02 %ID/g, the Liver uptake came out at 1.98 ± 0.15 %ID/g, the Lung uptake came out at 1.45 ± 0.04 %ID/g and the Muscle uptake came out at 0.16 ± 0.02 %ID/g. Further, in the data set on Huh-7 tumor-bearing mice (1.5 h p.i., non-blocking), the Small intestine uptake turned out to be 0.73 ± 0.07 %ID/g, the Spleen uptake stood at 0.67 ± 0.04 %ID/g, the Stomach uptake is 0.68 ± 0.09 %ID/g and the Thyroid uptake is 0.27 ± 0.03 %ID/g. Moreover, the Tumor/muscle in the data set on Huh-7 tumor-bearing mice (1.5 h p.i., non-blocking) turned out to be 4.55 ± 0.10. Also, in the data set on Huh-7 tumor-bearing mice (setting [4]), the Heart uptake is listed as 0.58 ± 0.03 %ID/g and the Tumor uptake is reported as 0.34 ± 0.09 %ID/g. For the same compound, the Heart uptake in the data set with Huh-7 tumor-bearing mice (0.5 h p.i., non-blocking, i.v. ~0.74 MBq/mouse) worked out at 0.54 ± 0.13 %ID/g.
